Earlier results in publication PMC10302803.

Target: VEGF-P3CYC
Sequence (main, as listed by the source): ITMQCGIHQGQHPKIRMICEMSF

Substance: VEGFR2 (from UniProt P35968)
- Kd: 11 nM
